The values that follow come from patent publication US20230126689A1 (GO THERAPEUTICS, published 2023).

Ends that are not written are not given here. * marks the point of attachment. αGalNAc = CC(=O)N[C@@H]1[C@@H](O)[C@@H](O)[C@@H](CO)O[C@@H]1*

In assay [1] the target is T1, CD44v6 glycopeptide … with O-linked GalNAc on threonine 5 and serine 12 (human, not fully specified (residue 12)).
T1 construct: Synthetic 19-residue glycopeptide made by FMOC synthesis; also called CD44v6-Tn(S + T); Tn-glycosylated CD44v6 glycopeptide
T1 peptide: GYRQT(αGalNAc)PKEDSHSTTGTAAA
The assay is described as follows: hybridoma screening (ELISA, flow cytometry, immunofluorescence). (In general: An ELISA detects its analyte on a solid surface through an enzyme-linked reagent.)

Assay [2] deals with T2, CD44v6 peptide glycoform CD44v6-Tn(S) (human, not fully specified (residue 12); also: GalNAc (Tn) on serine only, position not given here).
T2 construct: That the serine is Ser 12 is inferred from the two-site glycopeptide
T2 peptide: GYRQTPKEDSHSTTGTAAA
The assay is described as follows: BLI (Octet); Octet; Tn(S) glycoform. (In BLI a coated tip is dipped into the sample, and binding shifts an interference pattern.)

Assay [3] addresses T1, CD44v6 glycopeptide … with O-linked …. The assay is described as follows: BLI (Octet), apparent affinity with avidity factored in.
Assay [4] shares this target. The assay is described as follows: SPR (Biacore); Biacore, not Octet. (Surface plasmon resonance follows binding to a sensor surface in real time, without labels.)
The target in assay [5] is T3, Tn-glycosylated MUC1 (UniProt P15941 138-197, limits assumed, Tn (GalNAc) glycosylated; sites not stated for the material used).
T3 construct: also called MUC1-Tn
T3 sequence (P15941 138-197 limits assumed): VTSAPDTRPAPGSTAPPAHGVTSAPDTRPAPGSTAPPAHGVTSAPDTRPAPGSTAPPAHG
The assay is described as follows: Biacore (surface plasmon resonance); row MUC1-Tn, column Affinity (Biacore).

B1: 18G9 monoclonal antibody (antibody, V domains shown)
VH: DVQLVESGGGLVQPGGSRKLSCAASGFTFSSFGMHWVRQAPEKGLEWVAYISSGSSTIYYADTVKGRFTISRDNPKNTLFLQMTSLRSEDTAMYYCARGSYRAMDYWGQGTSVTVSS
VL: QIVLTQSPALMSASPGEKVTMTCSASSSVNYMFWYQQKPRSSPKPWIYLTSNLASGVPARFSGSGSGTSYSLTISSMEAEDAATYYCQLWSSNPFTFGSGTKLEIK
notes: Murine hybridoma antibody
Turning to B1, the binding result in assay [1] is on record as “binds”.

B2: 1D12 monoclonal antibody (antibody, V domains shown)
VH: DVQLVESGGGLVQPGGSRKLSCAASGFTFSSFGIHWVRQAPEKGLEWVAYISSGSSTIYYADTVKGRFTISRDNPKNTLFLQMTSLRSEDTAMYYCARGSKVVAKSRGYWYFDVWGAGTTVTVSS
VL: DVVVTQTPLFLPVSFGDQVSISCRSSQSLANNYGITYLSWYLHRPGQSPQLLIYGISNRFSGVPDRFSGSGSGTDFTLKISTIKPEDLGMYYCLQGTHQPWTFGGGTKLEIK
notes: Murine hybridoma antibody
As for B2, the binding result in assay [1] is recorded as “binds”.

B3: 10H4 monoclonal antibody (antibody, V domains shown)
VH: QSLEESGGRLVTPGTPLTLTCTASGFTINTYHMGWFRQAPGKGLQYIGIVSHDVGTYYATWAKGRFTISKTSSTTVDLRMPSPTTEDTATYICARGPGYWTFNLWGQGTLVTVSS
VL: AQVLTQTPASVSAAVGGTVTINCQASQSVYNNNQLSWYQQKPGQPLKQLIYKASTLASGVPSRFKGSGSGSQFTLTISDLECDDAATYFCAGGYKGDIHPFGGGTEVVVK
notes: Rabbit antibody
As to B3, the binding result in assay [1] is given as “binds”.

B4: 2B2 monoclonal antibody (antibody, V domains shown)
VH: EVQLVESGGGLVKPGGSLKLSCAASGFTFSSYAMSWVRQSPERRLEWVAEISSGGSYTYYPDTVTGRFTISRDNAKNTLYLEMSSLRSEDTAMYYCARTVGEDWYFDVWGAGTTVTVSS
VL: DIQMTQTTSSLSASLGDRVTISCRASQDISHYLNWYQQKPDGAVKLLIYSTSRLHSGVPSRFSGSGSGTDYSLTISNLEQEDIATYFCQQGYTLPFTFGSGTKLEIK
notes: Murine hybridoma antibody
With B4, the binding result in assay [1] was “binds”.

B5: 4C8 monoclonal antibody (antibody, V domains shown)
VH: QVQLQQPGSELVRPGASVKLSCKASGYTFTSYWMHWVKQRPGQGLEWIGNIYPRSGTTNYDGYFKSKATLTVDTSSSTAYMQLSSLTSEDSAVYFCTRSGYDYPFVYWGQGTLVTVSA
VL: QAVVTQESALTTSPGETVTLTCRTSTGAVSIRNYANWVQEKPDHLFTGLIGGTNNRAPGVPARFSGSLIGDKAALTITGAQPEDEAIYFCALLYSNYWVFGGGTKLTVL
notes: Murine hybridoma antibody from Balb/c mice immunised with the KLH-conjugated CD44v6 glycopeptide; It was detected with anti-mouse IgG Fc-gamma, and used as purified mAb or as hybridoma supernatant; also called 4C8 mAb; mAb 4C8
For the molecule B5, the Kd in assay [2] is 6.4 nM; in assay [3], 7.9 nM; in assay [4], 128 nM; in assay [5], > 400 nM.
